The values that follow come from patent US20240026407A1, “MODIFICATION OF SAPONINS” (GLAXOSMITHKLINE BIOLOGICALS SA, priority 2020, published 2024).

Format in all cases: biochemical, Quillaja saponaria
Assay [1] is described as follows: Experiment 6-3: screening of rhamnosidases for derhamnosylation of saponins in crude bark extract (80%), relative % of Left, Middle and Right Peak by UV HPLC. The following applies: CBE 80%, pH 7.4, 30 degC, 19.5 h; for Left Peak: mainly QS-17 family, negative control 27%; for Middle Peak: mainly QS-18 and desglucosyl-QS-17 family, negative control 48%; for Right Peak: mainly QS-21 family, negative control 26%. Here is the method:
Selected variants were expressed and lysed as in the method of experiment 6-1.
Crude bark extract (CBE) solution was adjusted to pH 7.4 by addition of NaOH (2M). 20 uL clarified lysate was transferred into fresh 96 well PCR plates. 80 uL CBE solution (pH 7.4) was added to each well of lysate to a final concentration of 80%. Plates were incubated at 30 degC with shaking for 19.5 h.
Quenched with 100 uL MeCN+2% AcOH and shaken at room temperature for 10 mins prior to centrifugation (10 min, 4 degC) to remove particulates. Samples were analysed by UV HPLC using method of Experiment 4-4.
Three key peaks of interest are apparent using this chromatography: Left Peak (retention time approximately 2.30-2.35 min) comprising mainly QS-17 family components; Middle Peak (retention time approximately 2.37-2.42 min) comprising mainly QS-18 family components and desglucosyl-QS-17 family components; and Right Peak (retention time approximately 2.44-2.50 min) comprising mainly QS-21 family components. Peak identity was supported by MS/MS.
Enzyme mediated hydrolysis of the alpha-O-rhamnosylation at the C2 position of the arabinofuranose moiety of QS-17 family components leads to a decrease in Left Peak and an increase in Middle Peak due to formation of QS-18 family components. Enzyme mediated hydrolysis of the alpha-O-rhamnosylation at the C2 position of the arabinofuranose moiety of desglucosyl-QS-17 family components leads to a decrease in Middle Peak and an increase in Right Peak due to formation of QS-21 family components.
The relative percentage of each peak was determined. A decrease in Left Peak and a concomitant increase in Middle Peak and Right Peak is observed for enzymes active under these conditions.

Assay [2] in a line: Experiment 6-2: screening of rhamnosidases for derhamnosylation of saponins in treated bark extract (25%), relative % of Left, Middle and Right Peak by UV HPLC. The following applies: TBE 25%, pH 7.4, 19.5 h; for Left Peak: mainly QS-17 family, negative control 24%; for Middle Peak: mainly QS-18 and desglucosyl-QS-17 family, negative control 50%; for Right Peak: mainly QS-21 family, negative control 26%.

Assay [3] can be described thus: Experiment 6-1: screening of rhamnosidases for derhamnosylation of saponins in treated bark extract (2%), QS-17 2296 to QS-18 2150 (PAR %). The following applies: TBE 2%, pH 7.5, 30 degC, 18 h; TIC peak area ratio percent of rhamnosylated starting saponin to derhamnosylated product, LCMS/MS; negative controls 4.876, 5.225.
A short description of assay [4]: Experiment 6-1: screening of rhamnosidases for derhamnosylation of saponins in treated bark extract (2%), QS-17 2310 to QS-18 2164 (PAR %). As to conditions: TBE 2%, pH 7.5, 30 degC, 18 h; TIC peak area ratio percent, LCMS/MS; negative controls 3.061, 2.429.
Assay [5] can be described thus: Experiment 6-1: screening of rhamnosidases for derhamnosylation of saponins in treated bark extract (2%), desglucosyl-QS-17 2134 to QS-21 1988 (PAR %). The following applies: TBE 2%, pH 7.5, 30 degC, 18 h; TIC peak area ratio percent, LCMS/MS; negative controls 2.719, 2.158.
Assay [6] is described as follows: Experiment 6-1: specificity of rhamnosidases towards other rhamnose residues (C3 saccharide rhamnose, C28 saccharide rhamnose). As to conditions: TBE 2%, pH 7.5, 30 degC, 18 h; LCMS/MS; negative controls 0.18, 0.17.

B1: 1079 (protein, listed as Lunatimonas lonarensis)
chain: MSMIRILSLLFLWMLSFSLVAQSTFSLQKLKVDHQENPLGIETASPVFSWQMQVAGSERGVYQKAYRIQVSDSHGALIWDSQQVSSDRSVGIRYQGEKLRPITAYTWSLTVWNQSDHSQTEIGKFETGWMDSPNAWKNAEWIGGDSEDLVLYAHALAVFKAGVTIQLDQESKSTRAAFLLGGNDVRLMKKNLNILQMESGRDGSYVGFELDISQVNGTEEGLALLHAYRVGYHADDQVGTPFHSMPIPQRLIHEGNKYEPHDLFLECNLGIFQVYLNGTENENKISPNDPSKPSYVAQGLNLNPMGEGGNYINFPLLGDIGFKTDSGQLATFSNLTISNYRRPGNVLFSEAESTISIFDKHPNIRAIAGRYQVGTDNKAVLALEDPSRNAPPMLRTTFTTQAKKIKKARIYATARGIYEMYLNGKRVGQDYFNPGLTQYNKNHQYQIYEVTDALESNAANAWGAWLSEGWWSGHITFSGGNWNFFGDRQSFLGTLLIEYEDGTVQEINTQPQSWKLFTDGPILNGSFFQGEVYDANKESVLTGWSLAQFDDSSWKSAQNVPLEGTTYTGPMTNGTLDYKQLTLSAQNDPTPTIIRRLKAVSMEEVRPGVFVYDMGQNMVGVPKITLSHGHQGDTVILRFAEVKYPDLPAYHPHSGMIMMENIRAALTHDIYIRKGGDEVIQPRFTFHGYRYVEITGIKNAPPLNAVEGLVISSVDSIRSSYTTSNQDVNKLWENITWSMLGNFLSIPTDTPARNERMGWSGDINVFARTSTYLGEVLPFLKRHMMAMRDLQAANGKFADVTPVGNGFGGTLWGSAGIVLPWELFLQYGDTTILEENYEAMKAYLAFLETREDKDSGVQMEGPLGDWLSPEVNKNDNTQFFTAYQAYGYGILHQVAQILGKPTEAATFQAKFASRKKFLMDTYFDARTGKSIHSGVSTQGRGGSTAPGTQKGDPIDTQASYAIPLYLEVIDGDLQEKVLANLIATLARENVDDMGILRPAYSLMTGFIATAAINEAISRYGDPVHAYRLLQQTSYPSWLYSVKNGATTIWERLNSYTVEDGFGGNNSMNSFNHYSFGAVGAWMYMYSLGIQRHPEIPGFKKFRLQPQPDPDGKMTWAKGHYDSMYGRIHSEWKRGVDSWEYKATVPPNTSAVLVLPVKDLERVSEGGKMLTEVLGITLISRENGYITMELSSGSYTFSIE
In the case of B1, in assay [1], the “Left Peak” value was determined as 25%, the “Middle Peak” value is on record as 48% and the “Right Peak” value stood at 27%. In assay [2], the “Left Peak” value amounted to 14%, the “Middle Peak” value is 58% and the “Right Peak” value turned out to be 28%. In assay [3], the “QS-17 (PAR %)” value is recorded as 0.315%. Moreover, the “Peak57 (PAR %)” value in assay [4] worked out at 0.000%. In addition, the “Peak75 (PAR %)” value in assay [5] is reported as 0.247%. For the same molecule, the “ratio PP/QS-21” value in assay [6] was 0.18.

B2: 1061 (protein, listed as Rhizobium leguminosarum)
chain: MNFQPAAISGNLVSRTWSGDMIAPLSDGGQGTAASFVSKTFEHDGTKLPAELFISALGLYRCFINGVRVGSDLLTPGWTNYDDRLAYQRYDVSNLLKPGLNRIEIWLADGWYRSPLMWGAQAIPNCWGDRIGAIADLIGADGTVLSTDTTWRSGVLPILRSGIYFGEIYDARQENCVETHGTEKLAFDKALLVAHETAAVRELRPLTAVENWTDDEGRTIYDFGQNAGGYIRYTVRGTAGAEVRVEHSEVLGPDRHFDNRNYRTAAAHTVYTLRGNGDETYAPHFTFHGFRYARVTIKGDAKILAIASIPISSVPEPAGGFTSGNALVNRLVENTIWSQRANFVEVPTDCPQRDERLGWTGDAQVFAATACWLSDSQSFLRKYLRDVMADQREDGAVSHFSPDPTRLHPANFPGYAGSTGWGDAIVVIPWVLYTHYGDRAVLSECLESMVRWVDFVWSISDGPLVRPPSRWGDRGFTFGDWLQPVGDNRKPRPTIADDCAATLYHFISTDLLARIAATLGEHALEEKMKQRANEIRRAFTNEFITPAGRLAHNDQTSYALAFLHDLIPAEHRQAAQQHFRQVIIDADYKIGTGFIGTPALLPALTKLGMDDLAEKVFLQEDVPGWLYQVSKGATTIWERWDSMAPDGTIYEPDMNSYNHYAYGAVCQWLFESVAGISPSPSAPGFAEVIVDPAPIPSLSPVSAYHDISQGRIEAGWHCDGKKVTYVLTLPEGCIGWFRPGKRHQNPSLNGEPVVEEAVLAPGTHRLVFSLPNS
For B2, in assay [1], the “Left Peak” value came out at 26%, the “Middle Peak” value worked out at 48% and the “Right Peak” value worked out at 27%. Besides, in assay [2], the “Left Peak” value is recorded as 13%, the “Middle Peak” value is recorded as 59% and the “Right Peak” value came to 28%. In assay [3], the “QS-17 (PAR %)” value was determined as 0.245%. In assay [4], the “Peak57 (PAR %)” value is 0.029%. The “Peak75 (PAR %)” value in assay [5] is listed as 0.230%. The “ratio PP/QS-21” value in assay [6] is on record as 0.19.

B3: 1039 (protein, listed as Lactobacillus acidophilus)
chain: MKITNILVNQMEHPLGFDLSNLRITFELTEMENIIGNVYKNISVGKVESEQPIYFEPDELYENNAFKINMELEPRTKYWVKIGVRNDNEVTSSNTWFETGKMDEKFYGKWITNKKDVENTLFKKDFELANKQIKSARLYSTTLGVYEVDLNGVKVGNEFLAPGFTNYDKIVQLQTYDVTKLVTKNSNNELVFSVGDGWYKGNLGFDGGQTNIYGDKKSILAELHVTYTDNSEQVISTDSSWLTTEGKIIKSSIYYGEDIDDTKDILDWSSVVILNKSTSIVRDRLSLPIMKKEVLKVKEIIHTPKNEIVLDFGQNHAGWPVFINRLARGKKITLQMGEILQDGNFYNKNLRLARAAFTYISDGEEKLIRPHFTYFGFRYVKISGVTDVNKDDFESWVLYSDLKQTGFIKTNNDKVNRLFKNVIWGQKSNFMDVPTDCPQRDERLGWTGDAEIFAPTASFNMNTYEFYKKYAKDMLVEQEDNKGMLPIIVPSLKQKSTGMAIWSDAATIIPWVTYRFFDDLGVLKQNYSQMKNWVDWITQNTKTKYLWIGQMQLGDWLSLDNGANPQGKTNEDYIASIYYFVSASIVSKAARLLHYDMESDYYENLARNIKTNILNEFVTEKGRIAIDTQTALVLALHFGLVHDYQKSQVVADLVKKVKDDNKHLQTGFVGTPFLLSVLSNNNQHHLAMDIFMQEDCPSWLYEVNMGATTIWERWNSVLPDGKMNPEGMNSLNHYSFGAVMMWMYQCVVGLNQFDAGFKEIYFAPKFDCRLKDIYSEFDSTYGKIKVEYHLETNEKHLIRMNLVIPFGVKMKVKLPRSAKYLINGKEKIGIVKLEYGKYDISYIPTKSYLNYYDLNSKLVDILDNNDLVKRIDQIDEKILQKVKRMGNTRSIFINKKIDELLDFEEISQEEKNQLVDILHKTIFIKLNLF
In the case of B3, in assay [1], the “Left Peak” value came out at 25%, the “Middle Peak” value is listed as 48% and the “Right Peak” value worked out at 27%. Besides, in assay [2], the “Left Peak” value is given as 16%, the “Middle Peak” value came out at 57% and the “Right Peak” value worked out at 27%. Moreover, the “QS-17 (PAR %)” value in assay [3] was 0.492%. Moreover, the “Peak57 (PAR %)” value in assay [4] worked out at 0.000%. For the same molecule, the “Peak75 (PAR %)” value in assay [5] was determined as 0.683%. Besides, the “ratio PP/QS-21” value in assay [6] was found to be 0.18.

B4: 1027 (protein, listed as Dictyoglomus thermophilum)
chain: MKSSNIYSPFDLKCEFTTNPLGVDKKNPIFSWKLRHLEKNEKQTAYQVIVSSSLETINDNIGDVWDTGKVLSSEQVIKYEGKELEPCKVYFWKVRWWDSKDQESPFSVVNTFETGLMNEENWKAKWITKKEHKYEVYSPDGAPFGLNYTIAYAPMFRKSFSISKKIKRARVYIAGLGLYELYINGERIGDRVLDPGQTDYKKRVLYTVYDVSKNIRDGKNAIGVILGNGRYVKEYGYDFPKLIIQVLVEYEDDSIEWIVSDESWKTTYGPITLNSLYHGEIYDGRKEIKGWNLPDFDDSTWENAILAEPPGGKLYSEIYPPIRITKTIKPIKMWSPEPGTYVYDFGQNYTGWIKIKVRTNESGKEIRIRHAELTYEDGTLNYSTNRTALATDVYITKGEGYEEYEPRFTYHGFRYVEILGYPGVPTLEDIEGKVVHTAVESNGEFICSNELINKIHHNIIWGQLSNLMSIPTDCPQRDERMGWMGDAQLSAEEAIFNFDMIGFYRKYLNDIRDAQKENGSLSDVIPPYWSIYPGDPAWSTAYITIAWYLYQYYGDKYVLEEHYEGFKKYVEFLKKLAPDYIVSFYKYGDWCQPGTVRPKDNSGELTSTFYFYHDVITLSKIAKLLGKEADYKYYSELADKIKSAFNKKFLKEKAYASIPTELSEENVKALLEKYPEDIKDFLRQQFTILSSLGMFTSQTLNTLPLYLNLVPEDKVQDVLKTLLEDIIIRHDYHLDTGIVATRYIFDVLTSYGYDEVAYKIVNQKTYPSFGYMIEEGATTLWERWEKLTSTGMNSHNHIMFGSVDAWFYRVIAGVRVGEPGWNKIIFEPHPVGDLKYAKARLNTIKGEVEINWQKTENIFSMRISVPVNSEGEVHVPKLFERFVVKEGDNIIYEKKGDLEENEKYIVIRVGSGSYNFYMEKI
For the molecule B4, in assay [1], the “Left Peak” value is given as 26%, the “Middle Peak” value is 48% and the “Right Peak” value was found to be 26%. Also, in assay [2], the “Left Peak” value is given as 18%, the “Middle Peak” value is 55% and the “Right Peak” value came to 27%. Further, the “QS-17 (PAR %)” value in assay [3] was 0.324%. In assay [4], the “Peak57 (PAR %)” value is 0.053%. In addition, the “Peak75 (PAR %)” value in assay [5] was 0.094%. Further, the “ratio PP/QS-21” value in assay [6] is reported as 0.19.
